This is an account of results in the supplement of paper PMC5998384.

Data set [1] concerns HeLa Kyoto. Nature of the data set: melting temperature (median over replicates), in situ; higher = more thermally stable.
The subject of data set [2] is HeLa Kyoto. Nature of the data set: thermal stability score vs G1/S (z-score of summed log2 fold changes over temperatures); higher = more thermally stable than in G1/S.
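For melting temperature (median over replicates), in situ in this document: HeLa Kyoto cells synchronized by double thymidine or nocodazole block, proteins quantified by TMT10plex mass spectrometry, three independent biological replicates.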
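For thermal stability score vs G1/S (z-score of summed log2 fold changes over temperatures) in this document: synchronized HeLa Kyoto cells, proteins quantified by TMT10plex mass spectrometry, three biological replicates, mitosis taken 0.5 h after nocodazole release, G1/S directly after double thymidine block.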

Chain of UBE2V1 (chain, as listed by the source): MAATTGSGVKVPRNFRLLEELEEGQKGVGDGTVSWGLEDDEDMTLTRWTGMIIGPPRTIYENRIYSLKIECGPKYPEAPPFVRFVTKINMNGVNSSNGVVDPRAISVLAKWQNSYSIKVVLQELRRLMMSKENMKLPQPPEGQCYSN

On to ITM2B, for which the melting temperature stood at 55.2 °C with HeLa Kyoto [1] (cell cycle stage: G1/S) and 54.7 °C with HeLa Kyoto [1] (cell cycle stage: mitosis). Moreover, the thermal stability score in the data set with HeLa Kyoto [2] (cell cycle stage: early G1 (4.5 h after nocodazole release)) was determined as 5.19; in the data set with HeLa Kyoto [2] (cell cycle stage: mitosis), 0.613.
The substance “MLLATLLLLLLGGALAHPDRIIFPNHACEDPPAVLLEVQGTLQRPLVRDSRTSPANCTWLILGSKEQTVTIRFQKLHLACGSERLTLRSPLQPLISLCEAPPSPLQLPGGNVTITYSYAGARAPMGQGFLLSYSQDWLMCLQEEFQCLNHRCVSAVQRCDGVDACGDGSDEAGCSSDPFPGLTPRPVPSLPCNVTLEDFYGVFSSPGYTHLASVSHPQSCHWLLDPHDGRRLAVRFTALDLGFGDAVHVYDGPGPPESSRLLRSLTHFSNGKAVTVETLSGQAVVSYHTVAWSNGRGFNATYHVRGYCLPWDRPCGLGSGLGAGEGLGERCYSEAQRCDGSWDCADGTDEEDCPGCPPGHFPCGAAGTSGATACYLPADRCNYQTFCADGADERRCRHCQPGNFRCRDEKCVYETWVCDGQPDCADGSDEWDCSYVLPRKVITAAVIGSLVCGLLLVIALGCTCKLYAIRTQEYSIFAPLSRMEAEIVQQQAPPSYGQLIAQGAIPPVEDFPTENPNDNSVLGNLRSLLQILRQDMTPGGGPGARRRQRGRLMRRLVRRLRRWGLLPRTNTPARASEARSQVTPSAAPLEALDGGTGPAREGGAVGGQDGEQAPPLPIKAPLPSASTSPAPTTVPEAPGPLPSLPLEPSLLSGVVQALRGRLLPSLGPPGPTRSPPGPHTAVLALEDEDDVLLVPLAEPGVWVAEAEDEPLLT [LRP10]” gave a melting temperature with HeLa Kyoto [1] (cell cycle stage: G1/S) of 54.7 °C.
Regarding “MNQENPPPYPGPGPTAPYPPYPPQPMGPGPMGGPYPPPQGYPYQGYPQYGWQGGPQEPPKTTVYVVEDQRRDELGPSTCLTACWTALCCCCLWDMLT [CYSTM1]”, the melting temperature came out at 59 °C with HeLa Kyoto [1] (cell cycle stage: G1/S) and 52.8 °C in the data set on HeLa Kyoto [1] (cell cycle stage: mitosis).
The corresponding values for “MQPPPPGPLGDCLRDWEDLQQDFQNIQETHRLYRLKLEELTKLQNNCTSSITRQKKRLQELALALKKCKPSLPAEAEGAAQELENQMKERQGLFFDMEAYLPKKNGLYLSLVLGNVNVTLLSKQAKFAYKDEYEKFKLYLTIILILISFTCRFLLNSRVTDAAFNFLLVWYYCTLTIRESILINNGSRIKGWWVFHHYVSTFLSGVMLTWPDGLMYQKFRNQFLSFSMYQSFVQFLQYYYQSGCLYRLRALGERHTMDLTVEGFQSWMWRGLTFLLPFLFFGHFWQLFNALTLFNLAQDPQCKEWQVLMCGFPFLLLFLGNFFTTLRVVHHKFHSQRHGSKKD [TMEM120A]” are 54.2 °C and 53.4 °C.
In the case of “MQPPPPGPLGDCLRDWEDLQQDFQNIQETHRLYRLKLEELTKLQNNCTSSITRQKKRLQELALALKKCKPSLPAEAEGAAQELENQMKERQGLFFDMEAYLPKKNGLYLSLVLGNVNVTLLSKQAKFAYKDEYEKFKLYLTIILILISFTCRFLLNSRVTDAAFNFLLVWYYCTLTIRESILINNGSRIKGWWVFHHYVSTFLSGVMLTWPDGLMYQKFRNQFLSFSMYQSFVQFLQYYYQSGCLYRLRALGERHTMDLTVEGFQSWMWRGLTFLLPFLFFGHFWQLFNALTLFNLAQDPQCKEWQVLMCGFPFLLLFLGNFFTTLRVVHHKFHSQRHGSKKD [TMPIT]”, the melting temperature is 54.2 °C with HeLa Kyoto [1] (cell cycle stage: G1/S) and 53.4 °C in the data set with HeLa Kyoto [1] (cell cycle stage: mitosis).
For “MRRAGLGEGVPPGNYGNYGYANSGYSACEEENERLTESLRSKVTAIKSLSIEIGHEVKTQNKLLAEMDSQFDSTTGFLGKTMGKLKILSRGSQTKLLCYMMLFSLFVFFIIYWIIKLR [BET1]”, in that order: 54.7 °C and 54.9 °C.
“MSPLSAARAALRVYAVGAAVILAQLLRRCRGGFLEPVFPPRPDRVAIVTGGTDGIGYSTAKHLARLGMHVIIAGNNDSKAKQVVSKIKEETLNDKVEFLYCDLASMTSIRQFVQKFKMKKIPLHVLINNAGVMMVPQRKTRDGFEEHFGLNYLGHFLLTNLLLDTLKESGSPGHSARVVTVSSATHYVAELNMDDLQSSACYSPHAAYAQSKLALVLFTYHLQRLLAAEGSHVTANVVDPGVVNTDVYKHVFWATRLAKKLLGWLLFKTPDEGAWTSIYAAVTPELEGVGGHYLYNEKETKSLHVTYNQKLQQQLWSKSCEMTGVLDVTL [DHRSX]” yielded a melting temperature with HeLa Kyoto [1] (cell cycle stage: mitosis) of 52.9 °C.
For “MSRFFTTGSDSESESSLSGEELVTKPVGGNYGKQPLLLSEDEEDTKRVVRSAKDKRFEELTNLIRTIRNAMKIRDVTKCLEEFELLGKAYGKAKSIVDKEGVPRFYIRILADLEDYLNELWEDKEGKKKMNKNNAKALSTLRQKIRKYNRDFESHITSYKQNPEQSADEDAEKNEEDSEGSSDEDEDEDGVSAATFLKKKSEAPSGESRKFLKKMDDEDEDSEDSEDDEDWDTGSTSSDSDSEEEEGKQTALASRFLKKAPTTDEDKKAAEKKREDKAKKKHDRKSKRLDEEEEEDNEGGEWERVRGGVPLVKEKPKMFAKGTEITHAVVIKKLNEILQARGKKGTDRAAQIELLQLLVQIAAENNLGEGVIVKIKFNIIASLYDYNPNLATYMKPEMWGKCLDCINELMDILFANPNIFVGENILEESENLHNADQPLRVRGCILTLVERMDEEFTKIMQNTDPHSQEYVEHLKDEAQVCAIIERVQRYLEEKGTTEEVCRIYLLRILHTYYKFDYKAHQRQLTPPEGSSKSEQDQAENEGEDSAVLMERLCKYIYAKDRTDRIRTCAILCHIYHHALHSRWYQARDLMLMSHLQDNIQHADPPVQILYNRTMVQLGICAFRQGLTKDAHNALLDIQSSGRAKELLGQGLLLRSLQERNQEQEKVERRRQVPFHLHINLELLECVYLVSAMLLEIPYMAAHESDARRRMISKQFHHQLRVGERQPLLGPPESMREHVVAASKAMKMGDWKTCHSFIINEKMNGKVWDLFPEADKVRTMLVRKIQEESLRTYLFTYSSVYDSISMETLSDMFELDLPTVHSIISKMIINEELMASLDQPTQTVVMHRTEPTAQQNLALQLAEKLGSLVENNERVFDHKQGTYGGYFRDQKDGYRKNEGYMRRGGYRQQQSQTAY [EIF3CL]”, the melting temperature in the data set on HeLa Kyoto [1] (cell cycle stage: G1/S) was determined as 49 °C; with HeLa Kyoto [1] (cell cycle stage: mitosis) it was 48.9 °C.
For the substance “MSSKRTKTKTKKRPQRATSNVFAMFDQSQIQEFKEAFNMIDQNRDGFIDKEDLHDMLASLGKNPTDEYLDAMMNEAPGPINFTMFLTMFGEKLNGTDPEDVIRNAFACFDEEATGTIQEDYLRELLTTMGDRFTDEEVDELYREAPIDKKGNFNYIEFTRILKHGAKDKDD [MYL12A]”, the melting temperature stood at 54 °C in the data set on HeLa Kyoto [1] (cell cycle stage: G1/S) and 52.7 °C in the data set on HeLa Kyoto [1] (cell cycle stage: mitosis).
As for “MSTRKRRGGAINSRQAQKRTREATSTPEISLEAEPIELVETAGDEIVDLTCESLEPVVVDLTHNDSVVIVDERRRPRRNARRLPQDHADSCVVSSDDEELSRDRDVYVTTHTPRNARDEGATGLRPSGTVSCPICMDGYSEIVQNGRLIVSTECGHVFCSQCLRDSLKNANTCPTCRKKINHKRYHPIYI [RNF4]”, the melting temperature in the data set on HeLa Kyoto [1] (cell cycle stage: G1/S) came out at 53.2 °C.
Turning to “MTVKTEAAKGTLTYSRMRGMVAILIAFMKQRRMGLNDFIQKIANNSYACKHPEVQSILKISQPQEPELMNANPSPPPSPSQQINLGPSSNPHAKPSDFHFLKVIGKGSFGKVLLARHKAEEVFYAVKVLQKKAILKKKEEKHIMSERNVLLKNVKHPFLVGLHFSFQTADKLYFVLDYINGGELFYHLQRERCFLEPRARFYAAEIASALGYLHSLNIVYRDLKPENILLDSQGHIVLTDFGLCKENIEHNSTTSTFCGTPEYLAPEVLHKQPYDRTVDWWCLGAVLYEMLYGLPPFYSRNTAEMYDNILNKPLQLKPNITNSARHLLEGLLQKDRTKRLGAKDDFMEIKSHVFFSLINWDDLINKKITPPFNPNVSGPNDLRHFDPEFTEEPVPNSIGKSPDSVLVTASVKEAAEAFLGFSYAPPTDSFL [SGK1]”, the melting temperature with HeLa Kyoto [1] (cell cycle stage: mitosis) is 48.3 °C.
With “MVGGGGVGGGLLENANPLIYQRSGERPVTAGEEDEQVPDSIDAREIFDLIRSINDPEHPLTLEELNVVEQVRVQVSDPESTVAVAFTPTIPHCSMATLIGLSIKVKLLRSLPQRFKMDVHITPGTHASEHAVNKQLADKERVAAALENTHLLEVVNQCLSARS [FAM96B]”, the melting temperature stood at 50.3 °C in the data set with HeLa Kyoto [1] (cell cycle stage: G1/S) and 52.7 °C in the data set on HeLa Kyoto [1] (cell cycle stage: mitosis).
For TPK1, in that order: 56.3 °C and 55.6 °C.
UBE2V1: in the data set on HeLa Kyoto [1] (cell cycle stage: G1/S), the melting temperature worked out at 54.2 °C.
